# Results taken from PMC7383879, “HSI2/VAL1 and HSL1/VAL2 function redundantly to repress DOG1 expression in Arabidopsis seeds and seedlings”.
# T1: HSI2 B3 domain (B3HSI2) (Arabidopsis thaliana, UniProt Q8W4L5 295-396)
# T1 sequence: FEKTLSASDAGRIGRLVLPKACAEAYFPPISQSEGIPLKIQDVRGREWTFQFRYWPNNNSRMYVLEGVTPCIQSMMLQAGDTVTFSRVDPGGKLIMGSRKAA
# B1: RY1 probe (dsDNA)
# DNA 1: GTCCTCCACGTAATGCATGCATGCGTTATTTCTTTT
# DNA 2: AAAAGAAATAACGCATGCATGCATTACGTGGAGGAC
# B2: mRY1 probe (dsDNA)
# DNA 1: GTCCTCCACGTAATGGACTACTGCGTTATTTCTTTT
# DNA 2: AAAAGAAATAACGCAGTAGTCCATTACGTGGAGGAC
# Target: T1, HSI2 B3 domain (B3HSI2)
# Assay: EMSA; 10 mM Tris pH 7.9, 30 mM KCl, 0.1 mM EDTA, 1 mM DTT, 0.05% NP-40, 6.5% glycerol, 50 ng/ml (so in the source) poly(dIdC), 50 fmol probe, 20 min at room temperature
# Settings: protein: recombinant; tags: His-Trx (Results); His (Methods, legend); label: 3' biotin; blunt
binder,measurement,value
B1,binding result,binds
B2,binding result,no binding
